{
  "source": "paper PMC3148250",
  "about": "“Structural Basis for Sequence Specific DNA Binding and Protein Dimerization of HOXA13”",
  "key": {"A13DBD WT [1]": {"biological_target": "T1, A13DBD WT (mouse (murine), UniProt Q62424 320-386)", "T1 sequence (Q62424 320-386)": "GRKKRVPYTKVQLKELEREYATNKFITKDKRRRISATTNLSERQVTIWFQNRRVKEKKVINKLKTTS", "experiment": "fluorescence anisotropy; 10 mM MgCl2; FA: 20 mM Tris pH 7.5, 80 mM KCl, 10 mM MgCl2, 0.2 mM EDTA, 1 mM DTT, 15 C, 1 nM DNA; NMR complex: 20 mM NaPO4 pH 6.0, 5 mM MgCl2, 10% D2O, 310 K; ITC buffer not given in the material", "conditions": "protein: recombinant; tags: His-tag removed by thrombin; label: 5' 6-FAM via hexyl linker; hairpin (self-annealing)"}, "A13DBD V373G [2]": {"biological_target": "T2, A13DBD V373G (mouse (murine), UniProt Q62424 320-386, V373G)", "T2 sequence (Q62424 320-386 V373G)": "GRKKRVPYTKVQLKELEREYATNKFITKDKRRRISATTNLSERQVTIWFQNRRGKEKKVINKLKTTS", "experiment": "fluorescence anisotropy; 10 mM MgCl2; FA: 20 mM Tris pH 7.5, 80 mM KCl, 10 mM MgCl2, 0.2 mM EDTA, 1 mM DTT, 15 C, 1 nM DNA; NMR complex: 20 mM NaPO4 pH 6.0, 5 mM MgCl2, 10% D2O, 310 K; ITC buffer not given in the material", "conditions": "protein: recombinant; tags: His-tag removed by thrombin; label: 5' 6-FAM via hexyl linker; hairpin (self-annealing)"}, "A13DBD WT [3]": {"biological_target": "T1, A13DBD WT", "experiment": "ITC; FA: 20 mM Tris pH 7.5, 80 mM KCl, 10 mM MgCl2, 0.2 mM EDTA, 1 mM DTT, 15 C, 1 nM DNA; NMR complex: 20 mM NaPO4 pH 6.0, 5 mM MgCl2, 10% D2O, 310 K; ITC buffer not given in the material", "conditions": "protein: recombinant, tags: His-tag removed by thrombin"}, "A13DBD V373G [4]": {"biological_target": "T2, A13DBD V373G", "experiment": "ITC; FA: 20 mM Tris pH 7.5, 80 mM KCl, 10 mM MgCl2, 0.2 mM EDTA, 1 mM DTT, 15 C, 1 nM DNA; NMR complex: 20 mM NaPO4 pH 6.0, 5 mM MgCl2, 10% D2O, 310 K; ITC buffer not given in the material", "conditions": "protein: recombinant; tags: His-tag removed by thrombin; C5-A5* mismatch with strand 2 as printed"}, "A13DBD WT [5]": {"biological_target": "T1, A13DBD WT", "experiment": "fluorescence anisotropy; 10 mM MgCl2; text fold changes suggest T6*C and T6*U swapped; FA: 20 mM Tris pH 7.5, 80 mM KCl, 10 mM MgCl2, 0.2 mM EDTA, 1 mM DTT, 15 C, 1 nM DNA; NMR complex: 20 mM NaPO4 pH 6.0, 5 mM MgCl2, 10% D2O, 310 K; ITC buffer not given in the material", "conditions": "protein: recombinant; tags: His-tag removed by thrombin; label: 5' 6-FAM via hexyl linker; hairpin (self-annealing)"}, "A13DBD V373G [6]": {"biological_target": "T2, A13DBD V373G", "experiment": "competition; 50 nM already competes with consensus; 4 uM protein; FA: 20 mM Tris pH 7.5, 80 mM KCl, 10 mM MgCl2, 0.2 mM EDTA, 1 mM DTT, 15 C, 1 nM DNA; NMR complex: 20 mM NaPO4 pH 6.0, 5 mM MgCl2, 10% D2O, 310 K; ITC buffer not given in the material", "conditions": "protein: recombinant; tags: His-tag removed by thrombin; hairpin (self-annealing)"}, "A13DBD I366A": {"biological_target": "A13DBD I366A (mouse (murine), UniProt Q62424 320-386, I366A)", "sequence (Q62424 320-386 I366A)": "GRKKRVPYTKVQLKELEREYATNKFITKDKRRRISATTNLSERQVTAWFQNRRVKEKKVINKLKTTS", "experiment": "ITC; FA: 20 mM Tris pH 7.5, 80 mM KCl, 10 mM MgCl2, 0.2 mM EDTA, 1 mM DTT, 15 C, 1 nM DNA; NMR complex: 20 mM NaPO4 pH 6.0, 5 mM MgCl2, 10% D2O, 310 K; ITC buffer not given in the material", "conditions": "protein: recombinant; tags: His-tag removed by thrombin; blunt"}, "A13DBD V373A": {"biological_target": "A13DBD V373A (mouse (murine), UniProt Q62424 320-386, V373A)", "sequence (Q62424 320-386 V373A)": "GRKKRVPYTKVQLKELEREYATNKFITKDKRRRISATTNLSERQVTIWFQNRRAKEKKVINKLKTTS", "experiment": "ITC; FA: 20 mM Tris pH 7.5, 80 mM KCl, 10 mM MgCl2, 0.2 mM EDTA, 1 mM DTT, 15 C, 1 nM DNA; NMR complex: 20 mM NaPO4 pH 6.0, 5 mM MgCl2, 10% D2O, 310 K; ITC buffer not given in the material", "conditions": "protein: recombinant; tags: His-tag removed by thrombin; blunt"}, "A13DBD F344A": {"biological_target": "A13DBD F344A (mouse (murine), UniProt Q62424 320-386, F344A)", "sequence (Q62424 320-386 F344A)": "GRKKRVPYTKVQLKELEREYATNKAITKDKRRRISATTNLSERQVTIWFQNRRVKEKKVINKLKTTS", "experiment": "ITC; does not affect DNA binding; FA: 20 mM Tris pH 7.5, 80 mM KCl, 10 mM MgCl2, 0.2 mM EDTA, 1 mM DTT, 15 C, 1 nM DNA; NMR complex: 20 mM NaPO4 pH 6.0, 5 mM MgCl2, 10% D2O, 310 K; ITC buffer not given in the material", "conditions": "protein: recombinant; tags: His-tag removed by thrombin; blunt"}, "A13DBD V373G [7]": {"biological_target": "T2, A13DBD V373G", "experiment": "ITC; text says 3-4-fold lower affinity; FA: 20 mM Tris pH 7.5, 80 mM KCl, 10 mM MgCl2, 0.2 mM EDTA, 1 mM DTT, 15 C, 1 nM DNA; NMR complex: 20 mM NaPO4 pH 6.0, 5 mM MgCl2, 10% D2O, 310 K; ITC buffer not given in the material", "conditions": "protein: recombinant; tags: His-tag removed by thrombin; blunt"}, "A13DBD N370A": {"biological_target": "A13DBD N370A (mouse (murine), UniProt Q62424 320-386, N370A)", "sequence (Q62424 320-386 N370A)": "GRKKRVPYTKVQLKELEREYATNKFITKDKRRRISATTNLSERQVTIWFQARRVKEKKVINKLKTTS", "experiment": "ITC; text says ~1000-fold lower affinity; FA: 20 mM Tris pH 7.5, 80 mM KCl, 10 mM MgCl2, 0.2 mM EDTA, 1 mM DTT, 15 C, 1 nM DNA; NMR complex: 20 mM NaPO4 pH 6.0, 5 mM MgCl2, 10% D2O, 310 K; ITC buffer not given in the material", "conditions": "protein: recombinant; tags: His-tag removed by thrombin; blunt"}},
  "data": [
    {"binder": "CAAACAAAATCCCCCATTTTGTTTG (structured_DNA)", "note": "[FA T5C]", "values": [
      {"measurement": "Kd", "setting": "A13DBD WT [1]", "value": "49.2 ± 4.97", "unit": "nM"},
      {"measurement": "Kd", "setting": "A13DBD V373G [2]", "value": "616 ± 56.1", "unit": "nM"}
    ]},
    {"binder": "CAAATAAAATCCCCCATTTTATTTG (structured_DNA)", "note": "[FA consensus (wt)]", "values": [
      {"measurement": "Kd", "setting": "A13DBD WT [1]", "value": "2.19 ± 0.06", "unit": "nM"},
      {"measurement": "Kd", "setting": "A13DBD V373G [2]", "value": "56.6 ± 2.25", "unit": "nM"}
    ]},
    {"binder": "11-mer T5C (dsDNA) DNA 1: CAAACAAAATC DNA 2: GATTTTATTTG", "values": [
      {"measurement": "Kd", "setting": "A13DBD WT [3]; C5-A5* mismatch with strand 2 as printed", "value": 286, "unit": "nM"},
      {"measurement": "Kd", "setting": "A13DBD V373G [4]", "value": 617, "unit": "nM"}
    ]},
    {"binder": "CAAATGAAATCCCCCATTTCATTG (structured_DNA)", "note": "[FA T6*C]", "values": [
      {"measurement": "Kd", "setting": "A13DBD V373G [2]", "value": "79.3 ± 6.93", "unit": "nM"},
      {"measurement": "Kd", "setting": "A13DBD WT [5]", "value": "5.95 ± 0.64", "unit": "nM"}
    ]},
    {"binder": "CAAAUAAATCCCCCATTTTATTGTG (structured_DNA, deoxyuridine at position 5)", "note": "[FA T5U]", "values": [
      {"measurement": "Kd", "setting": "A13DBD WT [1]", "value": "4.01 ± 0.28", "unit": "nM"}
    ]},
    {"binder": "11-mer T5U (dsDNA, deoxyuridine at T5 (DNA strand)) DNA 1: CAAAUAAAATC DNA 2: GATTTTATTTG", "values": [
      {"measurement": "Kd", "setting": "A13DBD WT [3]; blunt", "value": 14.5, "unit": "nM"}
    ]},
    {"binder": "TGACTGACTGACTGCCCCCCAGTCAG (structured_DNA)", "note": "[Scrambled]", "values": [
      {"measurement": "binding result", "setting": "A13DBD V373G [6]", "value": "binds"}
    ]},
    {"binder": "11-mer duplex WT (dsDNA) DNA 1: CAAATAAAATC DNA 2: GATTTTATTTG", "values": [
      {"measurement": "Kd", "setting": "A13DBD I366A", "value": 43.7, "unit": "nM"},
      {"measurement": "Kd", "setting": "A13DBD WT [3]; blunt", "value": 7.5, "unit": "nM"},
      {"measurement": "Kd", "setting": "A13DBD V373A", "value": 18.7, "unit": "nM"},
      {"measurement": "binding result", "setting": "A13DBD F344A", "value": "binds"},
      {"measurement": "Kd", "setting": "A13DBD V373G [7]", "value": 137, "unit": "nM"},
      {"measurement": "Kd", "setting": "A13DBD N370A", "value": 862, "unit": "nM"}
    ]}
  ]
}
